Experimental data from US20040126819A1 (LICENTIA, published 2004).

Columns and labels:
[1] = target: 300 kD GDNF receptor subunit of mouse cell lines (MN-1, TM4, SK-N-SH as printed); assay: displacement of 125I-GDNF by cold GDNF on MN-1 cells, cross-linking, SDS-PAGE, bands counted
Protocol: (§1) Plated cells were incubated with 10 ng/ml […] at 4° C. in binding buffer as described above. Ligand/receptor complexes were chemically cross-linked for thirty minutes at room temperature using either disuccinimidyl suberate (DSS) or 1-Ethyl-3(-3-dimethylaminopropyl)-carbodiimide hydrochloride (EDAC) (Pierce Chemical, Rockland, Ill.). Following quenching of the cross-linking reactions, cells were washed twice with 10 mM Tris/HCl buffered saline, 2 mM EDTA, 10% glycerol, 1% NP40, 1% Triton x-100, 10 μg/ml leupeptin, 10 μg/ml antipain, 50 μg/ml aprotinin, 100 μg/ml benzamidine hydrochloride, 10 μg/ml pepstatin and 1 mM PMSF(proteinase inhibitors from Sigma). Cleared lysates were boiled for 5 min in SDS/β-mercaptoethanol buffer, fractionated by SDS/PAGE on 4-20% gradient electrophoresis gels, and visualized by autoradiography. […] These samples were fractionated by gradient SDS/PAGE, gels were then dried and specific bands excised according to molecular weights determined from autoradiograms, and count in a gamma counter. […]
(§2) In order to dissect the individual constituent affinities of GDNF receptor subunits, displacement binding assays were performed, followed by cross-linking and SDS-PAGE. Receptor-ligand complexes were visualized by autoradiography, cut out from the gel and counted in a gamma counter.

[2] = target: T1, 70 kD GDNF receptor subunit of rat cell lines (designated GDNFR-β) (rat, UniProt O35977 22-444); assay: displacement of 125I-GDNF by increasing cold GDNF on RN33B cells, cross-linking, SDS-PAGE, band of the subunit cut out and counted
T1 construct: whole, on cells; also called 65-70 kD receptor; 100 kD complex (with GDNF) in RN33B cells
T1 sequence: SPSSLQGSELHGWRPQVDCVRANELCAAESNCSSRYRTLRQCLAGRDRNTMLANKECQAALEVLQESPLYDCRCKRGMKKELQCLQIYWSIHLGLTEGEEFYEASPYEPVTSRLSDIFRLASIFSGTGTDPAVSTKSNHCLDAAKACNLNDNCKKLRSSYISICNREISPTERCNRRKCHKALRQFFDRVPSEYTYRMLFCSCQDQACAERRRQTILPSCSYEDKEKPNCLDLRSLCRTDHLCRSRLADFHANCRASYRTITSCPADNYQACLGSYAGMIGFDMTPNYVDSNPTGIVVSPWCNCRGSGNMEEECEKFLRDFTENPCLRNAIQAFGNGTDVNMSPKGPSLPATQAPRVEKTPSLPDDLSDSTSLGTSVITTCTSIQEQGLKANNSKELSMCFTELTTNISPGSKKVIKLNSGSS
Protocol: (§3) Plated cells were incubated with 10 ng/ml […] at 4° C. in binding buffer as described above. Ligand/receptor complexes were chemically cross-linked for thirty minutes at room temperature using either disuccinimidyl suberate (DSS) or 1-Ethyl-3(-3-dimethylaminopropyl)-carbodiimide hydrochloride (EDAC) (Pierce Chemical, Rockland, Ill.). Following quenching of the cross-linking reactions, cells were washed twice with 10 mM Tris/HCl buffered saline, 2 mM EDTA, 10% glycerol, 1% NP40, 1% Triton x-100, 10 μg/ml leupeptin, 10 μg/ml antipain, 50 μg/ml aprotinin, 100 μg/ml benzamidine hydrochloride, 10 μg/ml pepstatin and 1 mM PMSF(proteinase inhibitors from Sigma). Cleared lysates were boiled for 5 min in SDS/β-mercaptoethanol buffer, fractionated by SDS/PAGE on 4-20% gradient electrophoresis gels, and visualized by autoradiography. Molecular weights indicated were obtained by subtracting the weight of a GDNF ligand monomer, e.g., 25-30 kD, more preferably […], from the estimated molecular weights of cross-linked complexes visualized by SDS/PAGE. For affinity measurements of cross-linked complexes, cells were incubated on plates as above in the presence of increasing amounts of unlabeled GDNF. These samples were fractionated by gradient SDS/PAGE, gels were then dried and specific bands excised according to molecular weights determined from autoradiograms, and count in a gamma counter. […] Immunocomplexes were collected with Protein A-Sepharose (Pharmacia, Sweden), washed in lysis buffer and boiled for 5 minutes before SDS/PAGE and autoradiography as above.
as §2

[3] = target: T2, 300 kD GDNF receptor subunit of rat cell lines; assay: as above
T2 construct: On C6, L6, RN33B, RN46A and ST15A cells; also called large molecular weight band; high molecular weight component
Protocol: as §3, §2

[4] = target: T3, 135 kD GDNF receptor subunit of rat cell lines; assay: as above
T3 construct: On C6, L6, RN33B and RN46A cells
Protocol: as §3, §2

[5] = target: T4, 55 kD GDNF receptor subunit of rat cell lines (confirmed to be GDNFR-α) (rat, UniProt Q62997 25-430); assay: as above
T4 construct: whole, on cells; also called 50-55 kD receptor; 70 kD complex (with GDNF) in RN33B cells
T4 sequence (looked up): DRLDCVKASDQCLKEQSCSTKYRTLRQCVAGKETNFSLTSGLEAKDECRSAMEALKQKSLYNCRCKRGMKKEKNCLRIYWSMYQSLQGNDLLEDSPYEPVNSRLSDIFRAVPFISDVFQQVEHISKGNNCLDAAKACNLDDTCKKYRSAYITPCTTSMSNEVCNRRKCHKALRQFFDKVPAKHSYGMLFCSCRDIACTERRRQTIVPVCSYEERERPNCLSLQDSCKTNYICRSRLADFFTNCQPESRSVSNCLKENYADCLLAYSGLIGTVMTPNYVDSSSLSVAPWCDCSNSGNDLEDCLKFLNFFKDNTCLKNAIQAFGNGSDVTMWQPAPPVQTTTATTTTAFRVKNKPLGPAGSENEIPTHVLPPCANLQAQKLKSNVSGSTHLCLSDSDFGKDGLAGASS
Protocol: as §3, §2

[6] = target: T2, 300 kD GDNF receptor subunit of rat …; assay: displacement of 125I-GDNF by cold GDNF on RN33B cells, cross-linking, SDS-PAGE, bands counted
Protocol: as §1, §2

[7] = target: T3, 135 kD GDNF receptor subunit of rat …; assay: as above
Protocol: as §1, §2

B1: recombinant rat GDNF produced in Sf21 insect cells using a baculovirus expression system (ligand, UniProt Q07731 78-211, looked up)
chain: SPDKQAAALPRRERNRQAAAASPENSRGKGRRGQRGKNRGCVLTAIHLNVTDLGLGYETKEELIFRYCSGSCEAAETMYDKILKNLSRSRRLTSDKVGQACCRPVAFDDDLSFLDDSLVYHILRKHSAKRCGCI
modifications: labeled with Na-^125I by the chloramine-T method where used as tracer
notes: mature; also called glial cell line-derived neurotrophic factor
~0.2 nM: Kd [1] | IC50 (read off the curve) [2] | IC50 (read off the curve) [4] | IC50 (read off the curve) [5] | Kd [6] | Kd [7]
~0.1 nM: IC50 (read off the curve) [3]
